In the DeepSol protein solubility set:

Assay: soluble on expression in E. coli; label from the status in PepcDB or PDB records

Sequence	soluble on expression in E. coli
MSFVVANTEFVSGAAGNLARLGSMISAANSAAAAQTTAVAAAGADEVSAAVAALFGAHGQTYQVLSAQAAAFHSQFVQALSGGAQAYAAAEATNFGPLQPLFDVINAPTLALLNRPLIGNGADGTAANPNGQAGGLLIGNGGNGFSPAAGPGGNGGAAGLLGHGGNGGVGALGANGGAGGTGGWLFGNGGAGGNSGGGGGAGGIGGSAVLFGAGGAGGISPNGMGAGGSGGNGGLFFGNGGAGASSFLGGGGAGGRAFLFGDGGAGGAALSAGSAGRGGDAGFFYGNGGAGGSGAGGASSAHGGAGGQAGLFGNGGEGGDGGALGGNGGNGGNAQLIGNGGDGGDGGGAGAPGLGGRGGLLLGLPGANGT	not soluble
MSLRLKVSFQAMESTVPLNYNYFLSSFIYKRLASQNENFARFLHEKGYGKRFKFFTFSQLFFENSRVSGERIFIFPGKGWWYISSPVVEFVRYMFSSLSEDPVIRVGKTEFIVKSIDIENSLPDQSEYHFVMLSPLVVSVPEENNGKLYHRYLHPGEEEFYEVFRKNLMKKYRAFYGKDPEGTVEVIPDWDYIKSRHRITKRIKLKNAFVRAVVFPFKIRGEKKLVEIGYEAGFGEKNSMGFGMVALKKYEREGHHHHHH	soluble
MKEMTVSEIREVQLEMLAYIDKVARDNKIEYSLGGGSLLGAMRHKGFIPWDDDIDLMLERSQYERLMKALADANNSDFKLLHHSVEKNLWPFAKLYHTKSMYLSKTDRIHPWTGIFIDIFPLDRLPESAEERQRFFKKVHSAAANLMCTTYPNFASGSRKLYANARLILGLPRFIAYHGQAKKRAEIVDQVMETYNNQEVPYMGYTDSRYRLKEYFPREIFSEYEDVMFENIKTRKIKNEHAYLNQLYGGSYMELPPESKRESHSYYTWYWKEGLEHHHHHH	soluble
MGSDKIHHHHHHMNRQVIEFSKYNPSGNMTILVHSKHDASEYASIANQLMAATHVCCEQVGFIESTQNDDGNDFHLVMSGNEFCGNATMSYIHHLQESHLLKDQQFKVKVSGCSDLVQCAIHDCQYYEVQMPQAHRVVPTTINMGNHSWKALEIIYETYVHYVIPVKQVTTEIQHLVEAFVREQQWSHKYKTVGMMLFDEQRQFLQPLIYIPEIQSLIWENSCGSGTASIGVFNNYQRNDACKDFTVHQPGGSILVTSKRCHQLGYQTSIKGQVTTVATGKAYIE	not soluble
MSASVPADLRNLRACLLCSLVKSVESFQKEGCENCEDVLHLKGDEEKVYDCTSANYDGMIAAMSNNESWVCKWQKMQRKVKGMYAISVSGVLPNNIVSELKSLGVRYKPNQRDYSTQFKK	not soluble
MHHHHHHSSGVDLGTENLYFQSMRPFLIGVSGGTASGKSTVCEKIMELLGQNEVEQRQRKVVILSQDRFYKVLTAEQKAKALKGQYNFDHPDAFDNDLMHRTLKNIVEGKTVEVPTYDFVTHSRLPETTVVYPADVVLFEGILVFYSQEIRDMFHLRLFVDTDSDVRLSRRVLRDVRRGRDLEQILTQYTTFVKPAFEEFCLPTKKYADVIIPRGVDNMVAINLIVQHIQDILNGDICKWHRGGS	soluble
MSLGTNPFYKIKREGEISLKLKNQLFRLYFLLIYSSLENLQMADKKSPVAVGMTVTPSNQANFVDAGSTTLMNKPGEPTFKLGINLNKVEFKCTEDRKPISVNLKLHNPMAVTVSYKVRCTSADIFRVQPPLGFVKPNETVSIVIWYQNQDKKDAISKNHYFAFYHTTSDGRTARELWANSKVEGVRRLPASFLSTK	not soluble
MGSDKIHHHHHHMTTSIDTLSAFVYAADLGSFSAAARRLGKSQSTISEAIANLEIDLGSSLFDRGTRAPTLTPAGRLLLPQARQIMAASQDLRRQAAQLNAGVETRLTIVLSDTFQSRTLESVACRLEERYPLLELECLVGEQEDVLDLILSGRAQLGLVGAMDSYPPDVRHQRQREASELALYAAHRHPLAGMDRIDEQQLDQHRQLRLNTYSDKTPADSGQRQWYAPSYLMLLDMARLGVGWAELPCWLVHSFGGGELKQLDVAGWPKRMPVDLVWAANKPLGAAAGWLLQQLTDGAEQR	not soluble
LRSAARTLYTWTLPNEYELIDVREPHEIEHTPSGAHITLPQSMWNDTTAIQHALDNITTDNVVVVCASGIRSAAFIEQFAHLNPHLTFHNVPSGINELP	not soluble
